Measurements from patent US6699869.

Molecular target: T1, (D)FPR-PNA
T1 chain: FPR

B1: human Factor VIIa (FVIIa) and human tissue factor (TF) complex (protein)
chain 1: ANAFLEELRPGSLERECKEEQCSFEEAREIFKDAERTKLFWISYSDGDQCASSPCQNGGSCKDQLQSYICFCLPAFEGRNCETHKDDQLICVNENGGCEQYCSDHTGTKRSCRCHEGYSLLADGVSCTPTVEYPCGKIPILEKRNASKPQGRIVGGKVCPKGECPWQVLLLVNGAQLCGGTLINTIWVVSAAHCFDKIKNWRNLIAVLGEHDLSEHDGDEQSRRVAQVIIPSTYVPGTTNHDIALLRLHQPVVLTDHVVPLCLPERTFSERTLAFVRFSLVSGWGQLLDRGATALELMVLNVPRLMTQDCLQQSRKVGDSPNITEYMFCAGYSDGSKDSCKGDSGGPHATHYRGTWYLTGIVSWGQGCATVGHFGVYTRVSQYIEWLQKLMRSEPRPGVLLRAPFP
chain 2: SGTTNTVAAYNLTWKSTNFKTILEWEPKPVNQVYTVQISTKSGDWKSKCFYTTDTECDLTDEIVKDVKQTYLARVFSYPAGNVESTGSAGEPLYENSPEFTPYLETNLGQPTIQSFEQVGTKVNVTVEDERTLVRRNNTFLSLRDVFGKDLIYTLYYWKSSSSGKKTAKTNTNEFLIDVDKGENYCFSVQAVIPSRTVNRKSTDSPVECMGQEKGEFRE
- Kcat/KM of substrate hydrolysis: Factor VII: Kcat/KM=1.27×10^4 M^-1 S^-1
